Consider 5 molecules from patent US20250339531A1, “DUX4 POLYPEPTIDES AND NUCLEIC ACIDS FOR TREATING INFLAMMATORY AND AUTOIMMUNE CONDITIONS” (Fred Hutchinson Cancer Center, priority 2021, published 2025).

The test system of assay [1] is interferon-stimulated genes IFIH1, ISG20, CXCL9, and CD74. In words: IFNG induction of interferon-stimulated genes, RT-qPCR in MB135 cells with doxycycline-inducible transgenes. It counts as cell-based, human. The conditions noted are these: MB135 cells, doxycycline-induced transgene, continuous protocol, IFNG 16 h. As to the method:
All myoblast experiments were conducted in immortalized MB135 or MB200 myoblast cell lines (isolated from a control or FSHD2 subject, respectively cultured in Ham's F-10 Nutrient Mix (Gibco) supplemented with 15% fetal bovine serum (Hyclone), 100 U/100 μg/ml penicillin/streptomycin (Gibco), 1 μM dexamethasone (Sigma), and 10 ng/ml recombinant human basic fibroblast growth factor (PeproTech). To differentiate the myoblasts to myotubes, media was changed to DMEM supplemented with 10 μg/ml insulin (Sigma) and 10 μg/ml transferrin (Sigma). Cell lines containing doxycycline-inducible transgenes were additionally cultured with 2 μg/mL puromycin (Sigma). Transgenes were induced with 1 μg/mL of doxycycline (Sigma) for 4 hours prior to other treatments for a total of 20 hrs. The Kitra-SRS cells (RRID:CVCL_YI69) were provided by Dr. H. Otani and Osaka University (Nakai et al., 2019) and were cultured in DMEM supplemented with 10% fetal bovine serum (Hyclone) and 100 U/100 μg/ml penicillin/streptomycin (Gibco). Biological replicates consisted of independent but parallel experiments, such as simultaneously stimulating three cell culture plates with IFNγ. Technical replicates consisted of repeat measurements of the same biological sample, such as loading the same biological sample in triplicate for analysis by RT-qPCR.
Myoblasts were transfected with either (final concentrations) 10 μM 2′,3′-cGAMP (Sigma Aldrich), 2 μg/mL poly(I:C) (Invitrogen), or 1 μg/mL 3′ppp-dsRNA RIG-I ligand (Dan Stetson Lab, UW) using Lipofectamine 2000 according to manufacturer's protocol, or were stimulated with 1000U IFNβ (PeproTech) or 200 ng/ml IFNγ (R+D Systems) by addition directly to cell culture medium. After 16 hours of immune stimulation, RNA was collected from cells using the NucleoSpin RNA Kit (Macherey-Nagel) according to manufacturer's instructions. RNA samples were quantified by nanodrop and 1 μg of RNA per sample was treated with DNase I Amplification Grade (Thermo Fisher), and then synthesized into cDNA using the Superscript IV First-Strand Synthesis System, including oligo dT primers (Invitrogen). qPCR was run in 384-well plates on an Applied Biosystems QuantStudio 6 Flex Real-Time PCR System (ABI) and analyzed in Microsoft Excel.

Assay [2] deals with proteins that co-immunoprecipitated with DUX4-CTD constructs expressed in MB135 myoblasts. In words: LC-MS of proteins co-immunoprecipitated with DUX4-CTD (Table 1) and western validation. It counts as binding, human. More on the design: key to 4. mL1dL2 + Dox + IFNG / 4. + IFNG mix / 4. longCTD + Dox + IFNG / 3. + IFNg + Dox longCTD / 3. + Dox longCTD / 3. + IFNG longCTD: peptide-spectrum matches (PSMs) per protein. As to conditions: kind of count not given; for 4. mL1dL2 + Dox + IFNG: LC-MS value per protein co-immunoprecipitated with DUX4-CTD construct mL1dL2 in MB135 myoblasts; for 4. + IFNG mix: LC-MS value per protein co-immunoprecipitated from MB135 myoblasts, + IFNG mix sample (no Dox). In short, it runs like this: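 FLAG-tagged DUX4-CTD expressed in doxycycline-induced MB135 myoblasts, some also IFNG-treated; nuclear lysates in pH 7.4 NP-40 IP buffer were pre-cleared, then anti-FLAG immunoprecipitated 3 h at 4 °C. For LC-MS, FLAG-peptide elution, in-gel trypsin digest, Orbitrap analysis; proteins with ≥2 PSMs in both experiments categorised and ranked by total PSMs.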

B1: CIC-DUX4 fusion: Kitra-SRS CIC-DUX4 fusion protein containing the terminal 98 amino acids of DUX4, doxycycline inducible (protein)
chain: MDYKDHDGDYKDHDIDYKDDDDKPPKRMRREPKKKRKVNLEGTSGGILQKEFWRNRIQYNQSQKDILQSWFQHDPFPDKAAREQLAKEIGVPESNIQVWFKNYRVKQRKLDYKCFSEKDQTQGHDQSQHLTQEYLPKEARQKQTFITWTQKNRLVQAFERNPFPDIATRKKLAEQTGLQESRIQMWFQKQRSLYLKKSRMEPMNLLVDDPNERPDATVGWHPINLFLPTDSSHYFSCSHSSSGHETLPPVLPSTQAPWDPFRFHVSQGPNVMIMQPTQAVQEGEKSDQPLIIPNHLLTLPILTKDLDTPTPFWLQYQEEHQNHKEHSGSGVPQVKSHSQPEPEHREQQPLNLGQFDISNILQRWDEICQALLAEWEPLKGTH
B1: in assay [1], the “suppression of IFNG induction of ISGs (IFIH1, ISG20, CXCL9, CD74)” value was “suppressed IFNγ-induction of ISGs IFIH1, CXCL9, and CD74, although not ISG20”.

B2: G3BP2 (protein)
chain: VMEKPSPLLVGREFVRQYYTLLNKAPEYLHRFYGRNSSYVHGGVDASGKPQEAVYGQNDIHHKVLSLNFSECHTKIRHVDAHATLSDGVVVQVMGLLSNSGQPERKFMQTFVLAPEGSVPNKFYVHNDMFRYEDEVFGDSEPELDEESEDEVEEEQEERQPSPEPVQENANSGYYEAHPVTNGIEEPLEESSHEPEPEPESETKTEELKPQVEEKNLEELEEKSTTPPPAEPVSLPQEPPKAFSWASVTSKNLPPSGTVSSSGIPPHVKAPVSQPRVEAKPEVQSQPPRVREQRPRERPGFPPRGPRPGRGDMEQNDSDNRRIIRYPDSHQLFVGNLPHDIDENELKEFFMSFGNVVELRINTKGVGGKLPNFGFVVFDDSEPVQRILIAKPIMFRGEVRLNVEEKKTRAARERETRGGGDDRRDIRRNDRGPGGPRGIVGGGMMRDRDGRGPPPRGGMAQKLGSGRGTGQMEGRFTGQRR
Consider B2, for which the “4. mL1dL2 + Dox + IFNG” value in assay [2] stood at 1.

B3: NONO (protein, UniProt Q15233 1-471, looked up)
Non-POU domain-containing …: MQSNKTFNLEKQNHTPRKHHQHHHQQQHHQQQQQQPPPPPIPANGQQASSQNEGLTIDLKNFRKPGEKTFTQRSRLFVGNLPPDITEEEMRKLFEKYGKAGEVFIHKDKGFGFIRLETRTLAEIAKVELDNMPLRGKQLRVRFACHSASLTVRNLPQYVSNELLEEAFSVFGQVERAVVIVDDRGRPSGKGIVEFSGKPAARKALDRCSEGSFLLTTFPRPVTVEPMDQLDDEEGLPEKLVIKNQQFHKEREQPPRFAQPGSFEYEYAMRWKALIEMEKQQQDQVDRNIKEAREKLEMEMEAARHEHQVMLMRQDLMRRQEELRRMEELHNQEVQKRKQLELRQEEERRRREEEMRRQQEEMMRRQQEGFKGTFPDAREQEIRMGQMAMGGAMGINNRGAMPPAPVPAGTPAPPGPATMMPDGTLGLTPPTTERFGQAATMEGIGAIGGTPPAFNRAAPGAEFAPNKRRRY
On to B3, for which, in assay [2], the “4. + IFNG mix” value came out at 1.

B4: DDX3X (protein)
chain: SHVAVENALGLDQQFAGLDLNSSDNQSGGSTASKGRYIPPHLRNREATKGFYDKDSSGWSSSKDKDAYSSFGSRSDSRGKSSFFSDRGSGSRGRFDDRGRSDYDGIGSRGDRSGFGKFERGGNSRWCDKSDEDDWSKPLPPSERLEQELFSGGNTGINFEKYDDIPVEATGNNCPPHIESFSDVEMGEIIMGNIELTRYTRPTPVQKHAIPIIKEKRDLMACAQTGSGKTAAFLLPILSQIYSDGPGEALRAMKENGRYGRRKQYPISLVLAPTRELAVQIYEEARKFSYRSRVRPCVVYGGADIGQQIRDLERGCHLLVATPGRLVDMMERGKIGLDFCKYLVLDEADRMLDMGFEPQIRRIVEQDTMPPKGVRHTMMFSATFPKEIQMLARDFLDEYIFLAVGRVGSTSENITQKVVWVEESDKRSFLLDLLNATGKDSLTLVFVETKKGADSLEDFLYHEGYACTSIHGDRSQRDREEALHQFRSGKSPILVATAVAARGLDISNVKHVINFDLPSDIEEYVHRIGRTGRVGNLGLATSFFNERNINITKDLLDLLVEAKQEVPSWLENMAYEHHYKGSSRGRSKSSRFSGGFGARDYRQSSGASSSSFSSSRASSSRSGGGGHGSSRGFGGGGYGGFYNSDGYGGNYNSQGVDWWGN
For the molecule B4, in assay [2], the “4. + IFNG mix” value is 1 and the “4. mL1dL2 + Dox + IFNG” value is listed as 2.

B5: iNLS-CTD: 3×FLAG tag nls construct encoding terminal 86 amino acids of DUX4 (aa 339-424), SEQ ID NOS: 12 and 13 (protein)
chain: MDYKDHDGDYKDHDIDYKDDDDKPKKKRKVNASASARQGQMQGIPAPSQALQEPAPWSALPCGLLLDELLASPEFLQQAQPLLETEAPGELEASEEAASLEAPLSEEEYRALLEEL
modifications: 3xFLAG tag and NLS
Turning to B5, the “suppression of IFNG induction of ISGs (IFIH1, ISG20, CXCL9, CD74)” value was “suppresses a portion of the IFNG-induced ISG genes, CXCL9 and CD74” in assay [1]; “maintained ISG suppression, though not as strongly on the IFIH1 and ISG20 genes” in assay [1] (listed as iDUX4aa339-424); “suppresses two of the four IFNG-induced” in assay [1] (listed as iNLS CTD).
